The record followed here is the Immune Epitope Database (IEDB).

In assay [1] the target is HLA-A*11:01. Kind of assay: IEDB peptide-MHC binding, purified MHC/direct/fluorescence; filed as Kd, often an IC50 or EC50 that approximates it; ≥ and ≤ were set here for values at or beyond the usual limits of such assays.
Assay [2] has as its target HLA-B*15:01. Described as above.
The target of assay [3] is HLA-C*07:02. The description is as above.
For assay [4], the target named is HLA-B*27:05. The assay is described as above.
Assay [5] has as its target HLA-A*02:01. Kind of assay: IEDB peptide-MHC binding, purified MHC/competitive/radioactivity; ≥ and ≤ were set here for values at or beyond the usual limits of such assays.
Assay [6] deals with HLA-B*51:01. Kind of assay: IEDB peptide-MHC binding, purified MHC/competitive/fluorescence; filed as Kd, often an IC50 or EC50 that approximates it; ≥ and ≤ were set here for values at or beyond the usual limits of such assays. Particulars: source organism: Yersinia pestis Nepal516.
Assay [7] deals with HLA-B*07:02. The assay is described as above. Particulars: source organism: Yersinia pestis Nepal516.
The target in assay [8] is HLA-C*05:01. Kind of assay: IEDB peptide-MHC binding, purified MHC/direct/fluorescence; filed as Kd, often an IC50 or EC50 that approximates it; ≥ and ≤ were set here for values at or beyond the usual limits of such assays.
In assay [9] the target is HLA-C*14:02. The assay is described as above.
Assay [10] has as its target HLA-C*15:02. The description is as above. Particulars: source organism: Yersinia pestis Nepal516.
Assay [11] concerns the target HLA-C*12:03. The description is as above. Particulars: source organism: Homo sapiens.
The target in assay [12] is HLA-A*02:01. Kind of assay: IEDB peptide-MHC binding, purified MHC/competitive/fluorescence; ≥ and ≤ were set here for values at or beyond the usual limits of such assays. Particulars: source organism: Zaire ebolavirus.
The target in assay [13] is HLA-B*08:01. The assay is described as above.
Assay [14] addresses HLA-A*24:02. Kind of assay: IEDB peptide-MHC binding, purified MHC/direct/fluorescence; filed as Kd, often an IC50 or EC50 that approximates it; ≥ and ≤ were set here for values at or beyond the usual limits of such assays.
Assay [15] has as its target HLA-A*02:01. Kind of assay: IEDB peptide-MHC binding, purified MHC/competitive/fluorescence; filed as Kd, often an IC50 or EC50 that approximates it; ≥ and ≤ were set here for values at or beyond the usual limits of such assays.
For assay [16], the target named is HLA-C*06:02. Kind of assay: IEDB peptide-MHC binding, purified MHC/direct/fluorescence; filed as Kd, often an IC50 or EC50 that approximates it; ≥ and ≤ were set here for values at or beyond the usual limits of such assays. The following applies: source organism: Influenza A virus (A/chicken/Fujian/25/00(H9N2)).
The target of assay [17] is HLA-A*11:01. Kind of assay: IEDB peptide-MHC binding, purified MHC/competitive/fluorescence; filed as Kd, often an IC50 or EC50 that approximates it; ≥ and ≤ were set here for values at or beyond the usual limits of such assays. The following applies: source organism: Listeria monocytogenes serotype 4b str. CLIP 80459.
Assay [18] has as its target HLA-B*83:01. Described as above. Particulars: source organism: Listeria monocytogenes serotype 4b str. CLIP 80459.
The target of assay [19] is HLA-B*45:06. The assay is described as above. Particulars: source organism: Listeria monocytogenes serotype 4b str. CLIP 80459.
For assay [20], the target named is HLA-A*68:23. The assay is described as above. The following applies: source organism: Listeria monocytogenes serotype 4b str. CLIP 80459.
The target in assay [21] is HLA-A*31:01. The description is as above. Particulars: source organism: Listeria monocytogenes serotype 4b str. CLIP 80459.
The target in assay [22] is HLA-B*15:42. The description is as above. The following applies: source organism: Listeria monocytogenes serotype 4b str. CLIP 80459.
Assay [23] has as its target HLA-B*15:09. Kind of assay: IEDB peptide-MHC binding, purified MHC/direct/fluorescence; filed as Kd, often an IC50 or EC50 that approximates it; ≥ and ≤ were set here for values at or beyond the usual limits of such assays.
The target of assay [24] is HLA-A*02:01. The assay is described as above.
The target of assay [25] is HLA-A*01:01. The assay is described as above.
The target in assay [26] is HLA-A*69:01. The description is as above. The following applies: source organism: Vibrio vulnificus.
The target of assay [27] is HLA-A*31:01. The description is as above. Particulars: source organism: Vibrio vulnificus.
The target of assay [28] is HLA-B*46:01. Described as above. Particulars: source organism: Vibrio vulnificus.
The target in assay [29] is HLA-A*26:01. Described as above. Particulars: source organism: Vibrio vulnificus CMCP6.
Assay [30] concerns the target HLA-B*40:01. The assay is described as above.
Assay [31] concerns the target HLA-B*58:01. The assay is described as above.
In assay [32] the target is HLA-A*03:01. The description is as above.
Assay [33] addresses HLA-B*07:02. Described as above.
In assay [34] the target is HLA-B*44:02. The assay is described as above.
Assay [35] has as its target HLA-A*68:02. Kind of assay: IEDB peptide-MHC binding, purified MHC/competitive/fluorescence; filed as Kd, often an IC50 or EC50 that approximates it; ≥ and ≤ were set here for values at or beyond the usual limits of such assays. The following applies: source organism: Campylobacter jejuni subsp. jejuni 81-176.
Assay [36] has as its target HLA-B*15:01. Kind of assay: IEDB peptide-MHC binding, purified MHC/competitive/fluorescence; ≥ and ≤ were set here for values at or beyond the usual limits of such assays. Particulars: source organism: Zaire ebolavirus.
The target in assay [37] is HLA-A*24:02. The assay is described as above. The following applies: source organism: Zaire ebolavirus.
Assay [38] concerns the target HLA-B*08:02. Kind of assay: IEDB peptide-MHC binding, purified MHC/direct/fluorescence; filed as Kd, often an IC50 or EC50 that approximates it; ≥ and ≤ were set here for values at or beyond the usual limits of such assays. The following applies: source organism: Giardia lamblia ATCC 50803.
Assay [39] addresses HLA-B*18:01. Described as above. The following applies: source organism: Giardia lamblia ATCC 50803.
Assay [40] addresses HLA-A*02:06. Kind of assay: IEDB peptide-MHC binding, purified MHC/competitive/fluorescence; filed as Kd, often an IC50 or EC50 that approximates it; ≥ and ≤ were set here for values at or beyond the usual limits of such assays. The following applies: source organism: Burkholderia orbicola.
The mark [41] stands for this setting: source organism: Yersinia pestis Nepal516.
Where [42] appears, read: source organism: Zaire ebolavirus.
Setting [43] is: source organism: Influenza A virus (A/chicken/Fujian/25/00(H9N2)).
Setting [44] is: source organism: Vibrio vulnificus.
Where [45] appears, read: source organism: Giardia lamblia ATCC 50803.

As usually defined, the Kd is the free concentration of one partner at which half of the binding sites on the other are occupied at equilibrium, for simple one-to-one binding. On to KRVDWSVEY, for which the Kd in [1] (source organism: SARS-CoV1) was 8740 nM; in [2] (source organism: SARS-CoV1) it was 2720 nM; in [3] (source organism: SARS-CoV1) it was 261 nM; in assay [4] (source organism: SARS-CoV1), 258 nM.
In general, IC50 refers to the concentration needed to halve the response being measured. Turning to FLPNDFFPSV, the IC50 in assay [5] (source organism: Hepatitis B virus) came out at 1.1 nM.
Regarding RAMKALSSI, the Kd in [6] is 253 nM; in assay [7], 12.6 nM; in [8] (setting [41]), at least 20000 nM; in [9] (setting [41]), 413 nM; in assay [10] it was 17 nM.
The sequence VRKCLQLIF showed a Kd in [3] (source organism: Saccharomyces cerevisiae) of 53 nM.
As to KLIDRTESL, the IC50 in assay [5] (source organism: Homo sapiens) was found to be 102 nM.
As to FLLENAAYL, the Kd in assay [3] (source organism: Homo sapiens) came to 354 nM; in assay [11], 291 nM.
In the case of RGVRLHPLA, the concentration for half-maximal inhibition (IC50) in [12] was at least 87800 nM; in assay [13] (setting [42]), at least 242000 nM.
As for VLEKGIPTL, the IC50 in [5] (source organism: Rhinovirus A) amounted to 200 nM.
As for ISPRNYFTF, in assay [14] (source organism: Toxoplasma gondii), the Kd was at most 1 nM.
Regarding WMMAMRYPI, the Kd is 0.2 nM in assay [15] (setting [43]), 1840 nM in [3] (setting [43]), at least 20000 nM in assay [8] (setting [43]) and at least 20000 nM in assay [16].
With YTYDLAEYR, the Kd in [17] was 21.3 nM; in [18], at least 5000 nM; in [19], at least 5000 nM; in assay [20], at most 0.1 nM; in [21], 8.3 nM; in assay [22] it was at least 5000 nM.
For SAICSVVRR, the IC50 in assay [5] (source organism: Hepatitis B virus subtype adw2) came out at 1430 nM.
HVDIRTLED: the IC50 in assay [5] (source organism: Human papillomavirus 16) stood at 25000 nM.
As to QSDIAGAIH, the Kd is at least 20000 nM in assay [1] (setting [44]); at least 20000 nM in assay [2] (setting [44]); at least 20000 nM in assay [23] (source organism: Vibrio vulnificus CMCP6); at least 20000 nM in assay [24] (setting [44]); 1660 nM in [25] (setting [44]); at least 20000 nM in [26]. Also, the Kd in assay [14] (setting [44]), in assay [4] (setting [44]), in assay [27], in [28], in assay [29] and in assay [30] (setting [44]) was at least 20000 nM each time. The Kd in [31] (setting [44]), in [32] (setting [44]), in assay [33] (setting [44]) and in assay [34] (setting [44]) was at least 20000 nM each time.
In [35], SVAHSAYEL came in with a Kd of at most 0.1 nM.
Take SFKAALSSL: the IC50 in assay [36] is 15200 nM; in [12] it was at least 358000 nM; in [37], 668 nM; in assay [13] (setting [42]), 45600 nM.
LYLYVPFLW yielded a Kd in assay [14] (source organism: Bacillus cereus 03BB108) of 55 nM.
MIYELCTFR: the Kd in assay [2] (setting [45]), in [38], in assay [23] (setting [45]), in [24] (setting [45]), in [25] (setting [45]) and in assay [4] (setting [45]) was at least 20000 nM each time. Moreover, the Kd in [30] (setting [45]) is at least 20000 nM; in assay [31] (setting [45]), at least 20000 nM; in [32] (setting [45]) it was 844 nM; in [33] (setting [45]), at least 20000 nM; in assay [39], at least 20000 nM; in assay [34] (setting [45]), at least 20000 nM.
With MQACPVDAI, the Kd in assay [40] was found to be 1.3 nM; in assay [15] (source organism: Burkholderia orbicola) it was 8.6 nM.
On to SGKNIKRTL, for which the IC50 in assay [13] (setting [42]) turned out to be 63600 nM.
With MLYQLLEAV, the IC50 in assay [13] (source organism: Vaccinia virus Copenhagen) is at least 303000 nM.
On to TVFYNIPPM, for which, in assay [9] (source organism: Human herpesvirus 4 strain B95-8), the Kd amounted to 3 nM.
